Target: T1, Full-length rat TRPV2 with a C-terminal 1D4 tag, reconstituted into MSP2N2 nanodiscs (rat), Q9WUD2
T1 chain: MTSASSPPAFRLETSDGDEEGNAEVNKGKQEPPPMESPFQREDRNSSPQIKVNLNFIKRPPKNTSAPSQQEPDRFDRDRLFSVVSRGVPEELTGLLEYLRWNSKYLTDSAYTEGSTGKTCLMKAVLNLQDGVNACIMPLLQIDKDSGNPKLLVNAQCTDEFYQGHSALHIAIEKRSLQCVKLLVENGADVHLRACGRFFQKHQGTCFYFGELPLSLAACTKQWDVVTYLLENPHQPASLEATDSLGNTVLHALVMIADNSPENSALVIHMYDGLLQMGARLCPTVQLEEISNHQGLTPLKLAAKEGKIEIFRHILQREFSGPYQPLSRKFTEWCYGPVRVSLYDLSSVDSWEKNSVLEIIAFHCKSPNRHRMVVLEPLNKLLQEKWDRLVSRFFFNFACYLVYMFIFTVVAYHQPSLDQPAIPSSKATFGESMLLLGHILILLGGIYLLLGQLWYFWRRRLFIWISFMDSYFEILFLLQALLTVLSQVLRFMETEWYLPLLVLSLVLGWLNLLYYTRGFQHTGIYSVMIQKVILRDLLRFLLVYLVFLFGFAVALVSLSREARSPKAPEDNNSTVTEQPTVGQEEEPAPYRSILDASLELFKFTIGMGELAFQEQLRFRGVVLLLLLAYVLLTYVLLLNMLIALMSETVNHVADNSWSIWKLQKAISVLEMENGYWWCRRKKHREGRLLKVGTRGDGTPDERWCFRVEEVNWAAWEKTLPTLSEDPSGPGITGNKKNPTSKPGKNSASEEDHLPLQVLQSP
Test: cryo-EM structure; rTRPV2 in MSP2N2/soy polar lipid nanodiscs; apo dataset at pH 8 (states Apo1, Apo2, Apo3) and dataset with 30 mM sodium acetate at final pH 5.0 (TRPV2_HOAc); grids prepared at 4 °C; maps refined with C4 symmetry
Conditions: remark: other sources report otherwise

stoichiometry N: 4
B1: Full-length rat TRPV2 with a C-terminal 1D4 tag, reconstituted into MSP2N2 nanodiscs, Q9WUD2 1-761 (natural protein)
chain: T1 chain

Source: PMC11148119
